In general, pKd refers to −log10 of the Kd, conventionally taken in molar units. Read a low pKd as a high Kd.

Substitutions are numbered along the chain they refer to. pKd: −log10 of the molar value.

Series [1] deals with T1, hADAR2-D E488Q E488Q (human), P78563-2.
T1 sequence: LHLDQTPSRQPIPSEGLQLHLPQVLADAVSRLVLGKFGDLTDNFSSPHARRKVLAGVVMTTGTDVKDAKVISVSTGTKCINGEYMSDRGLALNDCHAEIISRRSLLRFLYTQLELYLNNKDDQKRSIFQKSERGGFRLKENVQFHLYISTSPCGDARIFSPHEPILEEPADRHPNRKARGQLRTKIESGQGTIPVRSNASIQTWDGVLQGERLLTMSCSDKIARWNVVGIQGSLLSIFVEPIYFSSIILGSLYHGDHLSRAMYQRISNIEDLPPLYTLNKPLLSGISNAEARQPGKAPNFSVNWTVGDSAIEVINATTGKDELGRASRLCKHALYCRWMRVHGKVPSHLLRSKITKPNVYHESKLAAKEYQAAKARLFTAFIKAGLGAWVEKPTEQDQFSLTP
In words: EMSA. The settings on record: N12 of top = 8-azanebularine; EMSA: 20 mM Tris-HCl pH 7-7.1, 6% glycerol, 0.5 mM DTT, 60 mM KCl, 20 mM NaCl, 0.1 mM 2-mercaptoethanol, 1.5 mM EDTA, 0.003% NP-40, 160 U/ml RNasin, 100 ug/ml ….

For series [2], the system named is T2, hADAR2-D (human ADAR2 deaminase domain) (human), P78563-2.
T2 sequence: T1 sequence with Q190E
The series can be described thus: EMSA. The settings on record: EMSA: 20 mM Tris-HCl pH 7-7.1, 6% glycerol, 0.5 mM DTT, 60 mM KCl, 20 mM NaCl, 0.1 mM 2-mercaptoethanol, 1.5 mM EDTA, 0.003% NP-40, 160 U/ml RNasin, 100 ug/ml …. (Mobility shift assays separate free from complexed probe on a gel.)

“UUCCCCACAUUNGACGUUCAGU / ACUGAACGACCAAUGUGGGGAA [(i) 8-azaN]”: the pKd in series [1] is over 8.30; in series [2] (N12 of top = 8-azanebularine), 7.82.
In the case of “UUCCCCACAUUNGACGUUCAGU / ACUGAACCACCAAUGUGGGGAA [(d) 8-azaN]”, the pKd in series [2] (N12 of top = 8-azanebularine) is 7.52.
“UUCCCCACAUUNGACGUUCAGUUAGUACCACCAAUGUGGGGAA [(b) 8-azaN]”: the pKd in series [2] (N12 = 8-azanebularine) was 7.57.
On to “UUCCCCACAUUNGACGUUCAGU / ACTGAACCACCAAUGUGGGGAA [(g) 8-azaN]”, for which, in series [2] (N12 of top = 8-azanebularine, bottom nt 1-7 2'-deoxy), the pKd was 7.00.
As to “CAUUANGGUGGGUGGAAUAGUAUAACA / UGUUAUAGUAUCCCACCUACCCUGAUG [(e) GluR B R/G 8-azaN]”, in series [2] (N6 of top = 8-azanebularine), the pKd is under 5.49.
In series [2] (N12 of top = 8-azanebularine, bottom nt 16-22 2'-deoxy), “UUCCCCACAUUNGACGUUCAGU / ACUGAACCACCAAUGTGGGGAA [(f) 8-azaN]” gave a negative-log Kd (pKd) of 6.94.
In series [2] (N10 = 8-azanebularine), “CCCCACAUUNGACGUUCAGUUAGUACCACCAAUGUGGGG [(c) 8-azaN]” showed a pKd of 6.51.
Regarding “UUCCCCACAUUNGACGUUCAGU / ACUGAACCACCAATGUGGGGAA [(h) 8-azaN]”, the negative-log Kd (pKd) in series [2] (N12 of top = 8-azanebularine, bottom nt 8-15 2'-deoxy) was 6.47.
“UUCCCCACAUUNGACGUUCAGU / ACUGAACGUCCAAUGUGGGGAA [(j) 8-azaN]” had a pKd in series [2] (N12 of top = 8-azanebularine) of 8.00.

Values taken from PMC4333395.
